What all share (assay): SPR
Experiment [1] has as its target MBP-P66M-D205A,D207A fusion protein (Borrelia burgdorferi) (UniProt H7C7N8).
Experiment [2] deals with MBP-P66M-Del202-208 fusion protein (Borrelia burgdorferi) (UniProt H7C7N8).
In experiment [3] the target is MBP-P66M fusion protein (wild-type middle portion of Borrelia burgdorferi P66, a.a. 170-404) (Borrelia burgdorferi) (UniProt H7C7N8).

pKd: −log10 of the molar value.

By pKd is commonly meant the Kd on a negative log10 scale, so that one unit is a factor of ten. A low value points to a large Kd. By kon is commonly meant the second-order rate constant of association. Low readings indicate slower complex formation, high ones faster complex formation. For the substance “purified recombinant human integrin αvβ3 (carrier free) (from UniProt P06756 31-1048; P05106 27-718) (receptor)”, the negative logarithm of the Kd (pKd) in experiment [1] is 4.53; in experiment [2], 3.75. Besides, the kon came to 710 M⁻¹ s⁻¹ in experiment [1] and 321000 M⁻¹ s⁻¹ in experiment [3].

As to “purified recombinant mouse integrin αvβ3 (carrier free) (from UniProt P43406 31-1044; O54890 26-717) (receptor)”, the pKd in experiment [1] was 4.69; in experiment [2] it was 3.58. Further, the on-rate (kon) in experiment [1] turned out to be 1450 M⁻¹ s⁻¹; in experiment [3] it was 112000 M⁻¹ s⁻¹.
